The text below walks through data of patent US11306137B2, “Antibody binding agents that bind Acinetobactor and uses thereof” (priority 2015, dated 2022).

Entries after “also recorded” stand apart in the source; their conditions may differ.

The test system of experiment [1] is A. baumannii cell surface. The experiment can be described thus: Flow cytometry binding to A. baumannii cell surface. As for the experimental part: Hybridoma pre-clones were selected for subcloning based on bacterial cell surface reactivity by flow cytometry. Briefly, A. baumannii was passaged to log phase, stained with the bacterial dye SYTO BC (LifeTech #B7277), then stained with pre-clone supernatant from 96-well plates at 4° C., rinsed, and counter-stained with CF 647-conjugated goat anti-mouse IgG (Sigma-Aldrich, #SAB4600182). Control samples were stained with mouse IgG1 isotype control mAb (R&D Systems, #MAB002). Percent positivity was determined by flow cytometry.
Hybridoma cell lines were propagated in 96-well flat-bottom plates in DMEM-20%, and supernatants were harvested from wells for initial flow cytometry screening to identify antibodies that bound to intact bacteria. In brief, A. baumannii isolates were passaged to log phase, stained with the bacterial dye SYTO BC (LifeTech #B7277), and incubated for 1 hr with undiluted supernatants collected from 96-well plates at 4° C. Cells were washed and counter-stained with a secondary antibody, CF647-conjugated goat anti-mouse IgG (Sigma-Aldrich, #SAB4600182). Control samples were stained with a mouse IgG1 isotype control MAb (R&D Systems, #MAB002) as a negative control, and mouse polyclonal HUMC1-immune serum as a positive control for bacterial binding. Hybridomas that tested positive for bacterial binding were subcloned by limiting dilution into 96-well plates to ensure clonality, expanded, and retested to confirm bacterial binding.
For orientation: Flow cytometry measures light scatter and fluorescence of single cells or particles in a stream.

For experiment [2], the system named is A. baumannii HUMC1. In words: Confocal immunofluorescence surface binding. The note with it: FIG. 5. As for the experimental part:
To detect surface binding of A. baumannii by purified C8 MAb, mid-log-growth A. baumannii strains were washed twice, resuspended in PBS, stained with NucBlue Reagent (Life Technologies) for 30 min at 37° C., pelleted, and washed again in PBS. Primary antibody, either C8 MAb or Isotype Control IgG1 (R&D Systems, Product #MAB002), was added to 100 μL of bacteria to a final concentration of 100 μg/mL and incubated for 30 min at 37° C. Bacteria were washed twice and resuspended in secondary antibody goat anti-mouse IgG AlexaFluor647 (Life Technologies, Product #A21235) at a final concentration of 2 μg/mL for 20 min at 37° C. After washing twice with PBS, bacteria was resuspended in 50 μL PBS, and 10 μL drops were placed on slides and mounted with cover slips and nail polish. Images were taken using a Spinning Disc Confocal Microscope (Zeiss Axiolmager).

In experiment [3] the test system is A. baumannii HUMC1. In words: Lung and blood bacterial burden and lung histopathology in aspiration pneumonia. The note with it: 24 hr post-infection.

B1: C8: mouse IgG1-kappa monoclonal antibody from hybridoma 9.1C8 (ATCC PTA-122177); light chain SEQ ID NO:2, heavy chain SEQ ID NO:3 (antibody, listed as Mus musculus, V domains shown)
VH: EVQLQQSGPELVKPGASVKISCKASGYSFTGYTMNWVKQSHGKSLEWIGRINPYNGDSFYNQKFKGKATLTVDKSSNIAHMEFLSLTSEDSAVYYCGRSGDGPWFAYWGQGTLVTVSA
VL: LPLSLPVSLGDQASISCRSSQSIVHNNGNTYLEWYLQKPGQSPKLLIYKVSNRFSGVPDRFSGSGSGTDFTLKISRVEAEDLGVYYCFQGSHVPLTFGAGTKLEIKGSRS
Take B1: the “binding to the cell surface of A. baumannii by flow cytometry” value in experiment [1] (HUMC1 strain) is “specifically bound; also recorded: to the same extent as polyclonal immune serum”. The “surface binding to other clinical isolates by flow cytometry” value in experiment [1] (HUMC6, C14, ATCC 17978, AB0071, UH7007 (Table 7)) was “representative of 5 other strains; also recorded: Surface binding was confirmed to 4 other diverse clinical isolates”. In addition, in the experiment with A. baumannii HUMC1 [2], the “surface binding by immunofluorescent staining” value is “confirmed diffuse surface binding”. Moreover, in the experiment on A. baumannii HUMC1 [3] (50 μg C8, FIG. 9C), the “reduction of bacterial burden in the blood vs control mice” value came out at 7 log and the “reduction of bacterial burden in the lungs vs control mice” value was 2 log. In the experiment with A. baumannii HUMC1 [3] (FIG. 9D-E), the “lung histology (H&E)” value is on record as “appeared normal; also recorded: maintained normal lung architecture”.
